Source: US20260274944A1 (published 2026)
Positions count from the first letter of the chain named.

T1: mouse RAGE (mRAGE) fused to EGFP, expressed on CHO cells (mouse, UniProt Q62151 23-402)
T1 chain: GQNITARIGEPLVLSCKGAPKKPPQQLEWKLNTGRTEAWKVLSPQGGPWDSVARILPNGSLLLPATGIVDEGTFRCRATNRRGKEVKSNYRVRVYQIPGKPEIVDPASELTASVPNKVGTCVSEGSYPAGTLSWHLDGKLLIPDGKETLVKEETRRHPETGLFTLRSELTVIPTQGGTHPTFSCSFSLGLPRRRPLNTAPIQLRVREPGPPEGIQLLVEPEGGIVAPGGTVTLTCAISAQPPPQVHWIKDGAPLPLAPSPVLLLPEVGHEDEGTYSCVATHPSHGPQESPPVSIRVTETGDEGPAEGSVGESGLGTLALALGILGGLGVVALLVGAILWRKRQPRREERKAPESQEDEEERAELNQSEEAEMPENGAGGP

B1: VHH 1-Fc (Fc fusion)
chain: QVQLVQSGGGLVQPGGSLRLSCAVSGSIFSSATMGWYRQAPGKQRELAARISSGGSTNYLDSVKGRFTISRDNAKNTVYLQMNSLKLEDTAVYYCRLQANFGLVDYWGKGTQVTVSS
B2: VHH 1 (VHH)
VHH: B1 chain
B3: VHH 3 (VHH)
VHH: QVQLVQSGGGLVQAGGSLRLSCVASGRTFSNYAMAWFRQAPGEEREFVARISWSGGRTSYADSVKGRFTISRDNAKNTVYLQMISLKPEDTAVYYCATEAGAFGGVYSSTGSYDYWGQGTQVTVSS
B4: VHH 3-Fc (Fc fusion)
chain: B3 VHH
B5: VHH 4-Fc (Fc fusion)
chain: B3 VHH with Q1E, Q6E, S54R, T98S, A100G, S109A
B6: VHH 4-siTTRm (antibody, V domains shown)
VH: B3 VHH with Q1E, Q6E, S54R, T98S, A100G, S109A
B7: VHH 2-Fc (Fc fusion)
chain: QVQLVQSGGGLVQAGGSLRLSCAASGSVSSIYAMGWYRQAPGKQREWVTTITGRGITDYAASVKGRFTISRDTAKNAVYLQMNNLKPEDTARYYCKIDRRGYAPYWGQGTQVTVSS
B8: VHH 2 (VHH)
VHH: B7 chain
B9: VHH 2-siTTRm (antibody, V domains shown)
VH: B7 chain
B10: VHH 5-Fc (Fc fusion)
chain: EVQLVESGGGLVQPGGSLRLSCAASGTIFSLNPMGWYRQAPGKQLELVALISDSGTANYADFVRGRFTISRDTTKKTLYLQMNSLEPEDTAVYYCRSTFAAGNFYWGQGTQVTVSS

Legend:
[1] = molecular target: T1, mouse RAGE (mRAGE) fused to EGFP, …; test: flow cytometry on CHO-mRAGE-EGFP cells; apparent Kd; column head prints TfR, legend says RAGE
[2] = molecular target: T2, human RAGE (hRAGE) fused to EGFP, stably expressed on CHO cells (human, UniProt Q15109 23-404); test: flow cytometry on CHO-hRAGE-EGFP cells; apparent Kd; column head prints TfR, legend says RAGE
T2 sequence (Q15109 23-404): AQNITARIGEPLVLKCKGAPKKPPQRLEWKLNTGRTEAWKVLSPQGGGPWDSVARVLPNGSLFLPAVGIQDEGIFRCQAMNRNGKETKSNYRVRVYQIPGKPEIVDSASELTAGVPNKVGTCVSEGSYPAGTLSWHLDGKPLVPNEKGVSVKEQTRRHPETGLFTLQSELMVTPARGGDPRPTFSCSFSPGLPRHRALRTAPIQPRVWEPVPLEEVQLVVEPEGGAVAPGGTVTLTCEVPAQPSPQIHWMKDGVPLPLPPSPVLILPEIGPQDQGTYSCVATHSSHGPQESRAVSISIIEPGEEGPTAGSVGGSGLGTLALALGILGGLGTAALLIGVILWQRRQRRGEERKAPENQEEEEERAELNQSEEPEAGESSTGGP

[3] = molecular target: T1, mouse RAGE (mRAGE) fused to EGFP, …; test: flow cytometry on CHO-mRAGE-EGFP cells; apparent Kd
[4] = molecular target: T2, human RAGE (hRAGE) fused to EGFP, …; test: flow cytometry on CHO-hRAGE-EGFP cells; apparent Kd
[5] = molecular target: T1, mouse RAGE (mRAGE) fused to EGFP, …; test: flow
[6] = molecular target: T1, mouse RAGE (mRAGE) fused to EGFP, …; test: flow
[7] = molecular target: T1, mouse RAGE (mRAGE) fused to EGFP, …; test: flow cytometry on CHO-mRAGE-EGFP cells; apparent Kd

Binder | Kd [1] [nM] | Kd [2] [nM] | other results
B1 | 1.9 | 154 | 
B2 |  |  | Kd [3]: 320 nM; Kd [4]: 347 nM
B3 |  |  | Kd [5]: 80 nM
B4 |  |  | Kd [6]: 1.4 nM
B5 | 1.4 |  | 
B6 |  |  | Kd [7]: 11 nM
B7 | 9.6 | 3.6 | 
B8 |  |  | Kd [3]: 526 nM
B9 |  |  | Kd [7]: 119 nM
B10 | 153 | 3.2 | 
